US6379894 (NOVIMAUNE S A, dated 1999)

Target: T1, purified and recombinant USF1 protein (UniProt P22415 1-310, limits assumed)
T1 construct: also called USF1 recombinant factor; USF1 recombinant proteins
Experiment: EMSA with recombinant proteins on radiolabelled NGE DNA probe, PhosphoImager
From the text: We then analysed whether STAT1 and USF1 proteins formed the U complex co-operatively after induction by interferon γ. […] Further, adding increasing quantities of activated STAT1 to a given quantity of USF1 in the presence of an excess of free NGE probe encouraged the formation of STAT1/USF1 complexes rather than binding of USF1 alone.

T1 sequence (P22415 whole entry): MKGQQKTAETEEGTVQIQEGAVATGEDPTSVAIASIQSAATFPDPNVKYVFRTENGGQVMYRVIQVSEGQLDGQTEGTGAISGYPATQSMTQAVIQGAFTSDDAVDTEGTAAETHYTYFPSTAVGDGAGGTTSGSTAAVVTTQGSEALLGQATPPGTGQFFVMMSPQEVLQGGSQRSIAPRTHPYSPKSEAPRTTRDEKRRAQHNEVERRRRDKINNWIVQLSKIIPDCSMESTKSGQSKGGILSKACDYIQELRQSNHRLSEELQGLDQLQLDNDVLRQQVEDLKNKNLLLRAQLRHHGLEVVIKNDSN

probe bound to the complex, as fold of the sum of probe bound to USF1 alone and STAT1 alone: ~2 fold
B1: purified and activated recombinant STAT1 protein (other, UniProt P42224 1-750, looked up)
chain: MSQWYELQQLDSKFLEQVHQLYDDSFPMEIRQYLAQWLEKQDWEHAANDVSFATIRFHDLLSQLDDQYSRFSLENNFLLQHNIRKSKRNLQDNFQEDPIQMSMIIYSCLKEERKILENAQRFNQAQSGNIQSTVMLDKQKELDSKVRNVKDKVMCIEHEIKSLEDLQDEYDFKCKTLQNREHETNGVAKSDQKQEQLLLKKMYLMLDNKRKEVVHKIIELLNVTELTQNALINDELVEWKRRQQSACIGGPPNACLDQLQNWFTIVAESLQQVRQQLKKLEELEQKYTYEHDPITKNKQVLWDRTFSLFQQLIQSSFVVERQPCMPTHPQRPLVLKTGVQFTVKLRLLVKLQELNYNLKVKVLFDKDVNERNTVKGFRKFNILGTHTKVMNMEESTNGSLAAEFRHLQLKEQKNAGTRTNEGPLIVTEELHSLSFETQLCQPGLVIDLETTSLPVVVISNVSQLPSGWASILWYNMLVAEPRNLSFFLTPPCARWAQLSEVLSWQFSSVTKRGLNVDQLNMLGEKLLGPNASPDGLIPWTRFCKENINDKNFPFWLWIESILELIKKHLLPLWNDGCIMGFISKERERALLKDQQPGTFLLRFSESSREGAITFTWVERSQNGGEPDFHAVEPYTKKELSAVTFPDIIRNYKVMAAENIPENPLKYLYPNIDKDHAFGKYYSRPKEAPEPMELDGPKGTGYIKTELISVSEVHPSRLQTTDNLLPMSPEEFDEVSRIVGSVEFDSMMNTV
modifications: activated form (phosphorylated); the residue numbers are not given
notes: also called STAT1 factor
